Test: label from the status in PepcDB records

| Sequence | protein production |
| --- | --- |
| MLRRALEEAIAQALKEMGVPVRLKVARAPKDKPGDYGVPLFALAKELRKPPQAIAQELKDRLPLPEFVEEAVPVGGYLNFRLRTEALLREALRPKAPFPRRPGVVLVEHTSVNPNKELHVGHLRNIALGDAIARILAYAGREVLVLNYIDDTGRQAAETLFALRHYGLTWDGKEKYDHFAGRAYVRLHQDPEYERLQPAIEEVLHALERGELREEVNRILLAQMATMHALNARYDLLVWESDIVRAGLLQKALALLEQSPHVFRPREGKYAGALVMDASPVIPGLEDPFFVLLRSNGTATYYAKDIAFQFWKMGILEGLRFRPYENPYYPGLRTSAPEGEAYTPKAEETINVVDVRQSHPQALVRAALALAGYPALAEKAHHLAYETVLLEGRQMSGRKGLAVSVDEVLEEATRRARAIVEEKNPDHPDKEEAARMVALGAIRFSMVKTEPKKQIDFRYQEALSFEGDTGPYVQYAHARAHSILRKAGEWGAPDLSQATPYERALALDLLDFEEAVLEAAEERTPHVLAQYLLDLAASWNAYYNARENGQPATPVLTAPEGLRELRLSLVQSLQRTLATGLDLLGIPAPEVM | not failed |
| MLRSLRLAALLGSLLMAVAASARDIDAASYGYPLTNPFEATIATTPPDKRPELPSDDEITQSDYSLNLRPEREFTLPDNFWAVKKLKYRLARQDHEAPLIFIIAGTGAPYSSSINEYLKKLFYQAGFHVVQLSSPTSYDFMSAASRFATPGISQEDAEDMYRVMQAVRAQHPRLPVSDFYLTGYSLGALDAAFVSHLDETRRSFNFKRVLLLNPPVNLYTSINNLDKLVQTQVKGIDRSTTFYELMLEKLTRYFQDKGYIDLNDALLYDFQQSRQHLSNEQMAMLIGTSFRFSAADIAFTSDLINRRGLIIPPKFPITEGSSLTPFFKRALQCDFDCYMTEQVIPMWRARTDGNSILQLVNQVSLYALEDYLRSSDKIAVMHNADDVILGPGDIGFLRKVFGERLTLYPHGGHCGNLNYRVNSDAMLEFFRG | failed |
| MLRVTPILLAVLYAFAMYHFSAWRTRRELDARSTELADPALKRLTDRLAAALGVARVPVHIYEIDPVNGLAAPDGRIFITRGFYRKYQSGEVTGEELTSVIAHELGHVALGHSRRRMIDFSGQNAMRTALAMLLGRFIPFFGVWIANMLTTLLAARLSRADEYEADAYAAALLTKAGIGVAPQKALFHKLDALTEQRAGVAPAWLLSHPKTAERIAALDRLEARWQAH | failed |
| MLRYILLKIDIGKEGTDMAAIQAKNGPTEKLSLFLLTWPIFLEVFLFMLMGIADTFMLSALSDDAVSGVGAANQYLHIAILVLEVIGNGAAIVVSQYLGSKRFMEASKISALAVTLNLIVGLVISTGFLLFSKHMMLAMNLQGDVLTYAQNYLSIVGGAIFLQAIINSLAAIIRVHGFTKQAMFISLGMNMIHIAGNYVLIFGKFGFPELGVQGAAISSAVSRLIALIVFFWLLYRVMEYRVKLQYYFTLSKEYIGKILKIGIPSAFEQVMYQACQIVFLYYATYLGTESLAARQYATNISMFTYLFAIAIGMGTAIIIGRLVGGGEKDEAYERLWKSVKWAIGVTLCMVALVITFRTQLMGLFTDNPYIIGLGASVLLLSVLLETGRTMNIVIINSLRAAGDAKYPVLIGAFSMVLMSLPLGYFFAFHLDMGLVGIWLAIAIDEWTRAIIMFFRWKSRAWERYALVKPEEQEENVSVQVQ | failed |
| MLSFILSIFPIVLLIYLMVKRNALPSYVALPWVATLVMGVHLLHFNTDIVTISANVVSAIIAVQTPITVIFGAILFNRFSEISGATNIMRKWLGNINPNPVAQLMIIGWAFAFMIEGASGFGTPAAIAAPILVGLGFHPLKVAMLALIMNSVPVSFGAVGTPTWFGFGALKLSEDMILEIGSITAFIHSIAALIIPLLALRILVNWDDIRKNIVFIYISVLGCVVPYFLIAQVNYEFPSLVGGAIGLFISVWAANRNIGLAKVTNTLDNNAVSAGEVVKALFPTGLLIAFLIVTRIHQLPFKAMMNDATIWFSTTLGSLGLFEISKGLIFSLKNIFGSNVSSSYKLLYVPALIPFVITVLIAIPFFKISSSNVKQILVSSLQQSKNPFIALIGALVMVNLMLVGGEHSMVKIIGRTFAEISGSNWTIFSSFLGAIGSFFSGSNTVSNLTFGSVQLSTAETTGISVALVLALQSVGGAMGNMVCINNIVAVSSVLNISNQEGTIIKKTIIPMIIYGIIAALGALFLVPLFYNL | failed |
| MLSGVGAPVGKQMLAGTEVAAMQINKAGGLLGREVELVIRDDKYNSSESVAVARELAGDGINLLLGGSQTVTALGLAPLAPELNMAVMIVAAAGMPVTHELFNPNIFRATANNYTQYSSLGRVLIEQNPDVRTWVSLAPDGDFGRDSALFFGKAVEKYAPGEKPTVLDTIYTQATATDFRTQINQLMSSDAEGLYIGIAASAQISFFQQARSVGLYDKFKAIGEVGNGDITGKAMGRNTHPNLWSVCHWIYNAEPFASNPVSKQLYEDYVTLKGDEMPSAQVAAGHRAAMAIFEGIRAAGSTETEAVLAAIEDVEFETVGGPVSFRKEDHQLVNTNYYSQMGPSREEPFFAFNKVVSIDAAEMIEPATPGKAFDISELPQLEHHHHHH | failed |
| MLSKHYKLKFPGTLAMKGGYLFVFLAAVMWGTLGIFAKFLYGFNLSTYTIVFYRVLFALIFLAVYLKVRGLPLLMSKDRLPFYLGFSFFSIFLFYSLYFYTVKISSVSFAVLMLYTAPVYSLIFGRILFGEKLTPSKLTAVFLVILGVLLLNLDGKLNVSKLALLTGLASGLTYSLYGVFVKFAVRREEPERVLFNVLLIGLLFLLPVTDLRVPTAALPYLLGLAFFPTFLGYILYNTALKTVEVSKASIIATIEPVVAIILAYFIFGEALSLLQYLGASLIIAGAILAKR | failed |
| MLSMIGLVGGLVLLIVLTLRGMNLFISAPLCAVIVALCSGVPLLTGDVNFVSAYMDGFASFVAAWFFMFLLGSMFGKFMEDTGAADSVARWIINKLGRKQAVLAVVLACAILTYGGVSVFVVAFSVYPMALSLFKDANLPRRFIPAALAFGSVTFTMTSAGSPEIQNWIPVKYLGTSPYAAWEVSLVVAVLMATFGYWWLRKIINRAIANGEKFEAREGDPILLERKLPSPISGLIPLLVVLGLSFTFHDTLQQNALIVALLGGVIAIAVINFKHFHKPQTAIHEATTGALVAIGNTAAVVGFGSIAKITPAFDAAVTAMTSLPGNELVGAAVAVSVIAGLTGSASGGQAIALPEVGPHYMAAGVNPEQLHRIVSISSGALDSLPHNGYVVTTIRAICNEKHSAAYWAVAAVTVVVPLMGLAVAIGLFML | failed |
| MLSMLALGSEKLMMGNNFPGSGVCFVYTDFGIPEYYRIIVLGLIALVGIKEMLLTSRKEDHFSIDSIDIGIFPLLICFVANFLFAGLEIIFTGLSP | failed |
| MLSQTLLEMTEQMIEVAEKGADRYQEGKNSNHSYDFFETIKPAVEENDELAARWAEGALELIKVRRPKYVHKEQIEAVKDNFLELVLQSYVHHIHKKRFKDITESVLYTLHAVKDEIAREDSRLEHHHHHH | not failed |
| MLSRIDLYIKHRDIFLKHLELLHKLIEKVEDSSLNESELLNARLVDDMFPFNVQAKIATNFALRACCPLSGKEYKELEGDIDSFCGLKTYVVTAIDYINKLSEPTLEQLNLNVQDTAGFKEISMPASEYMSSFVLPNFFFHISMVYAIAKNNGVSVTKGDFDGIHQYPKGFSWEA | not failed |
| MLSRILEKYRENGIQGIVLALISRFPGVRAVCVYYVYRLPFDKLVRKQLSVGNLKVVQVKSDSMGDLIRVQDKPDIFGERFQMGHYGFVAYVNNDPVAYLWGQEGPVHVERRFGFEVPIKDNQVFYYDSYTIPEWRKSGVGRALIQESIDFFKNGLGKSELIAIIETGNLVSQKTYERMGFVREAMHIHLDIIGKKINKQLARMVTQ | failed |
| MLSTNKFAVLAFATFVAFQAPAHAEDAVVAKVGNLEIHQSELDLAVANLDPQLAQLPDDQKKVAALSAAIDVKLLAAGATTEKLEQTDEFKKRMQYLTDRELHNAYFKKHVVDTVTPDEIKARYDKEVAALPKQEEVHARHILVKTEDEAKDIIKQLDAGKDFAELAKEKSTDPNKSEGGDLGYFSRGRMVKEFEDAAFALEKGAYSKTPVKTDFGYHVIKVEDKRDAPPPPFDQVQDQVRQLVMRDKYLALLNQAKSSAKIEISDETLRKGYDEANKQPEPGSEPPQPAPKQ | failed |
| MLSYPRYLAVFLLIIGQSCLAFAEEQPQVGQLFKLFDSGESMPRATIEQNIALLEKLISSDDIERIEKLNQIKCWNQASDTEEEIAKALNYAEQALSQIPSTASTHFITDINLCRAWFLQLTGDINGAMEGYTKSVQSAYEHEDIKLIADARSLRGALYSYTGDFSEALDDLVTAQGLYESLNLTGWANINLTDIATSFRRYGDPESAIKYYKKLKELYLKNGNKEQVANVMSEIGIALDEMGKHEQAIEHFRFSYQYFKDQKLNIVAAINATNIAYSLIQLNRLDEAENYLNEAAPDISENEPAAYSFMKLFMGKIRNQQGRYQEALDELSAAEHAFRVMHNDRGLIQLLQLKSDIYAAMEDLPQAYHILQEFIALTKKVDDSSIAHQTTELKVKFDTSWIESENKRLIDNQKLKEQELTLLEKNKSLQLIILLLTGCILATVSLFAYKQVHRNRQLQTIALTDYLTQLPNRRHIYAQAEQYFQLALKQQIPFSIIIFDADHFKKINDNFGHEIGDQALLTIAEASKTLTTDRNLVGRIGGEEFLILLPNTDADRAWKLAHELQTLITRFGAINLPVELKLTVSAGVATLPIQSELQDQNFARLLKRADNALYEAKNAGRNCVKAAEITG | failed |
| MLTAFTAGLLLITVSELGDKTFFIAMILAMRYPRRWVLVGVVGGLAAMTILSVLMGQIFTFLPTRYINYAEVALFLIFGTKLLWDARRIKATANLEEMEDAEKAIASGEKKLKIVPRGWGIVVESFALTFVAEWGDRTQIATIALAASNNAWGVSAGAILGHTICAVIAVMGGKFVAGRISEKTVTLIGGLLFYLFAVVSWWTKIA | failed |
| MLTANIQAASSTRRYSDYVTRSWSHALPIGRKRINLDAIAQLAGERDIVGLQESDPGSLRSGFTNQTCYLAQRAGFHYWSHQPNRRMAGVASSANGLLSRLKPRQIHNHALPGRIPGRGVLLAKFGNGGFDSLVVAVVHLSLGVRSRMAQLVFIADLLAEYPNTILMGDFNCRADCSEMQVLYRRTRLQPPGVVIPTFPSWRPERAIDHILVSEGFYICKTEAVPAAFSDHLAVSMDLVIPQRILRLEHHHHHH | failed |
| MLTDAHCRAAKAKDKLYRINDARGLYLEVKPNGVRAWRYRFKLCGKASWFALGDYPDLSLANAREKCDEARKLVRQGINPVQNRQLTKIKREMDASNTFETIAQEWLALKSWEPVTKSRRLGMLKRVVFPSIGKLPVRTITSAHVLDILNKTVKRGAPTVAAEAKRTMSGVFELAVATLRADTDPVWPVRKALPPNKTQHKAALTSGQVGNLLNAFDSHGGHFQTQMAFRLMWLTLTRANESVQARWDEFDLANGLWKIPKERMKARREHLLPLPRQAVSILTTMQPITGQSTYVFPNRDDRHKPMSDAAFRQALKKLGWATIYSPHGTRTTGSTRLNEMGYRSDAIEAQLAHAEPNSVRRAYNHAIYMVERAEMMQHWADKLDLWKKEASDAAI | failed |
| MLTDMQRDSASSSTVTTEQIVYGALPLTTINEPECRAIAITSINGSATLSGVSGPMGDQTDADLLIQLRGWADAIVVGAETARKENYGPVVLPHGIKNQRQKLGRCGLPKLTLLSKSLYFDFSSELFSPDLPSELSPLVITQQPANNSEQWDQRLQKLIDVGVEVIVAPTSTNPLKIAFDALHARRLKKISIEGGPSVYRQALSLGIVDRLHLTIAPNIICPVESPLFGKISDDSFTTRLVLEMLSSSPNGLIFSRYKVIRDTLGNPTQ | not failed |
| MLTEVSDTRIAHKKFGLFYPSVSRPSIFVEGEDRKNFLQGIASQDILKQDEKSLSYSFFLNPKARILFDAWCGNFEDKIALFPPAGTREEFVNHLKKYLFFRTKAKITDMSDHFREIRLVGPETISVLLSLFDNNFSGSSFRMLKNGGYVLIHPTSFQHNLDVGLQADLFIPIDQFETTQKSLEDFTSNKGGVLLDESSYLAYLTEKGIPLFPSELNDSFFPAEAGLDSVGVSYNKGCYVGQEPVTRLKFQGHLNRSLAGFRLEGGPFPKMEFPVTLFNPKDGNEAGILTRTSSSDILGSGIGLGYIKRNFSENGTELLLPDAQLVRVHSLPFV | not failed |

Reference: a protein production outcome set (Wang et al. 2014)
